Results on two molecules are retold here after patent publication US20250345423A1 (IMUNEXUS THERAPEUTICS, published 2025).

In assay [1] the target is T1, human B7-1 (CD80) protein (Acro Biosystems, B71-H5259) (human, UniProt P33681 35-242).
T1 sequence (looked up): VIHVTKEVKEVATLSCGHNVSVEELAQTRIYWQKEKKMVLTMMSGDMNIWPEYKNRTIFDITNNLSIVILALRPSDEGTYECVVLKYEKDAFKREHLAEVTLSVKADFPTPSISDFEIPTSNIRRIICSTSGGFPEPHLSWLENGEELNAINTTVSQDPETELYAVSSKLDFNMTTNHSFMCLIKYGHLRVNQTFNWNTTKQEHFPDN
Kind of assay: in-cell ELISA on transfected bMSCs, anti-CD80 primary antibody, versus control transfection. As to the method:
Cells were plated on a 96-well plate at a density of 10,000 cells per well. The in-cell ELISA was performed the following day.
All in-cell ELISA experiments were carried out in 96-well microtiter plates. For assays in which the primary antibody was directed against the ligand of the CTLA-4 binding domain, the supernatant of cells expressing the CTLA-4 BD was aspirated, replaced with medium containing the ligand (rhSOST (R&D systems 1406-ST-025/CF) or B7-1/CD80 protein (Acro Biosystems, B71-H5259) at varying concentrations, and incubated for 1 h at RT. For assays in which binding of B-lymphocytes to cells expressing the CTLA-4 binding domain was to be assessed, cells from a lymphoblast-like cell line (Raji cells) were used. The required number of Raji cells (100,000 cells for each assay well) were centrifuged and resuspended in an appropriate volume of MSCBM (100 μl/100,000 cells), and the cell suspension was added to the wells containing bMSCs. Plates were incubated for 1 h at RT before the wells were very carefully washed 3× with D-PBS. In-cell ELISA assays were carried out two days after transfection with CTLA-4 BD plasmid DNA. […]

Assay [2] concerns the target T2, CD80 expressed on Raji cells (UniProt P33681 35-288).
T2 construct: whole, on cells; also called Raji cells expressing CD80; B7-1 on Raji cells
T2 sequence (looked up): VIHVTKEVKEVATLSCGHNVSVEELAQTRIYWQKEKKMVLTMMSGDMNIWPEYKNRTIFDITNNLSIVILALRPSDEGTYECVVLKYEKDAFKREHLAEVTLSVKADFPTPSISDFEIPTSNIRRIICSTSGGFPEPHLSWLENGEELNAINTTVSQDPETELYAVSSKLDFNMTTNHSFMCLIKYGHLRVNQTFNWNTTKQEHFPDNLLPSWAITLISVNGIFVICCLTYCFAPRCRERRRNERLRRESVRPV
Kind of assay: cell-to-cell binding: Raji cells on transfected bMSCs (summary of Example 2). As to the method:
The required number of Raji cells (100,000 cells for each assay well) were centrifuged and resuspended in an appropriate volume of MSCBM (100 μl/100,000 cells), and the cell suspension was added to the wells containing bMSCs. Plates were incubated for 1 h at RT before the wells were very carefully washed 3× with D-PBS. In-cell ELISA assays were carried out two days after transfection with CTLA-4 BD plasmid DNA. The cell supernatant was aspirated, cells were washed 3× with 300 μl D-PBS (137 mM NaCl, 8.1 mM Na₂HPO₄, 2.68 mM KCl, 1.47 mM KH₂PO₄, 0.9 mM CaCl₂), 0.5 mM MgCl₂), and then fixed by adding 50 μl of a formaldehyde solution (4% in PBS, for example Santa Cruz Biotechnology, Cat. No. SANTS-281692). After 15-20 minutes of incubation at RT, the solution was aspirated and cells were washed 3× with 300 μl D-PBS-T (D-PBS containing 0.05% (w/V) Tween-20). Wells were blocked by incubating with 300 μl of 5% skim milk in D-PBS-T for 1 h at RT. The blocking buffer was aspirated and wells were washed with 3×300 μl D-PBS-T before adding 50 μl of the primary antibody diluted in D-PBS-T (see Table 1 for antibodies and their respective dilutions). […] After 5-15 minutes the reaction was stopped by adding 100 μl 1 M HCl, and absorbance at a wavelength of 450 nm was measured using a micro plate reader. […]

For assay [3], the target named is T3, human recombinant Sclerostin (rhSOST, R&D systems 1406-ST-025/CF) (human, UniProt Q9BQB4 24-213).
T3 sequence (looked up): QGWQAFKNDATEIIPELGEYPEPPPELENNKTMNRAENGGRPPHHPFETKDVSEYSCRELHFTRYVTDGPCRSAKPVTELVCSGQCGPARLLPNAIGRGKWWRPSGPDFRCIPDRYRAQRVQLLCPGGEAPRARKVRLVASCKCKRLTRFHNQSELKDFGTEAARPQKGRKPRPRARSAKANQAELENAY
Kind of assay: in-cell ELISA on transfected HEK293 cells, anti-SOST primary antibody, versus mock transfection. As to the method:
The remainder of the protocol was identical for both cell types. One day before transfection, cells were plated on 96-well microtiter plates that had previously been coated with Poly-D-Lysine (PDL, Gibco, Cat. No. A38904-01) according to the manufacturer's instructions. The ideal cell density for subsequent transfection and in-cell ELISA was empirically determined to be 10,000 cells per well at time of seeding. The day after plating, cells were transfected using the Lipofectamine 3000 transfection kit (Invitrogen, Cat. No. L3000-008). The ideal amount of DNA and Lipofectamine per well was empirically determined to be 100 ng (HEK cells) or 200 ng (CHO cells) of DNA and 0.15 μl of Lipofectamine 3000. Transfections were performed according to the manufacturer's instructions.
All in-cell ELISA experiments were carried out in 96-well microtiter plates. […]
In general terms: ELISA stands for enzyme-linked immunosorbent assay.

B1: BD_B7 (CTLA-4 binding domain directed against B7.1 (CD80)), displayed on the cell surface from the display vector (designed binder)
chain: KAMHVAQPAVVLASSRGIASFVCEYASPGKYTEVRVTVLRQADSQVTEVCAATYMTGNELTFLDDSICTGTSSGNQVNLTIQGLRAMDTGLYICKVELMYPPPYYLGIGNGTQIYVIDPEPSPDSNAGGGGSGGGGSGGGGSAEQKLISEEDLNAVGQDTQEVIVVPHSLPFKVVVISAILALVVLTIISLIILIMLWQKKPR
notes: also called CTLA-4 BD directed against B7-1
As for B1, the binding result in assay [1] and in assay [2] was “binds” in each case.

B2: BD_SOST (CTLA-4 binding domain directed against human sclerostin), displayed on the cell surface from the display vector (designed binder)
chain: KAMHVAQPAVVLASSRGIASFVCEYTVSWVDMEVRVTVLRQADSQVTEVCAATYWNGRWLTFLDDSICTGTSSGNQVNLTIQGLRAMDTGLYICKVQLDPSWGYYWQGYEGIGNGTQIYVIDPEPSPDSNAGGGGSGGGGSGGGGSAEQKLISEEDLNAVGQDTQEVIVVPHSLPFKVVVISAILALVVLTIISLIILIMLWQKKPR
B2: the binding result in assay [3] was “binds”.
